Read-outs that look alike come from different tables or passages of the source. No end group written: not given here.
What was measured:
FRET or BRET [1] = biological target: the molecule itself; assay: FRET or BRET
FRET or BRET [2] = biological target: the molecule itself; assay: FRET or BRET; remark: listed apart in the source

Protein: MTGKNWILISTTTPKSLEDEIVGRLLKILFVIFVDLISIIYVVITS (natural protein, UniProt P0DMT0 1-46, looked up) [YFP-myoregulin (MLN)]
- stoichiometry N (FRET or BRET [1]): 2
- stoichiometry N (FRET or BRET [2]): > 2

B1: YFP-phospholamban (PLB) (natural protein, UniProt P26678 1-52, looked up)
chain: {YFP}-MEKVQYLTRSAIRRASTIEMPQQARQKLQNLFINFCLILICLLLICIIVMLL
modifications: cysteine pairing not given here
- stoichiometry N (FRET or BRET [1]): 2
- stoichiometry N (FRET or BRET [2]): > 2

B2: YFP-ALN (another-regulin) (natural protein, UniProt Q8WVX3 1-66, looked up)
chain: MEVDAPGVDGRDGLRERRGFSEGGRQNFDVRPQSGANGLPKHSYWLDLWLFILFDVVVFLFVYFLP
- stoichiometry N (FRET or BRET [1]): 2
- stoichiometry N (FRET or BRET [2]): > 2

B3: YFP-endoregulin (ELN) (natural protein, UniProt P0DI80 1-62, looked up)
chain: MDQLVFKETIWNDAFWQNPWDQGGLAVIILFITAVLLLILFAIVFGLLTSTENTQCEAGEEE
- stoichiometry N (FRET or BRET [1]): 2
- stoichiometry N (FRET or BRET [2]): > 2
